From US20230093169A1, “COMBINATIONS OF ANTIBODY CONSTRUCTS AND INHIBITORS OF CYTOKINE RELEASE SYNDROME AND USES THEREOF” (AMGEN RESEARCH (MUNCH) GMBH, priority 2020, published 2023)

What was measured:
TNF-α = molecular target: T1, TNF-α (Homo sapiens, UniProt P01375); experiment: Etanercept prophylaxis for PSMA-targeting BiTE-related CRS in humans; assay type: in vivo
T1 construct: endogenous in cells; host or cells: human subjects (clinical cohort), in vivo
Procedure: Etanercept premedication occurred within two days before BiTE administration to assess whether prophylaxis with the TNF-α inhibitor decreases the frequency and severity of CRS without compromising the efficacy of the BiTE. In an initial cohort of 6 to 8 subjects, the PSMA-targeting BiTE is administered. In addition to dexamethasone prophylaxis, subjects in the cohort received prophylaxis with etanercept (50 mg subcutaneously [SC]) two days prior to each dose of PSMA-targeting BiTE in the first administration cycle.
Subject incidence of safety events, including dose-limiting toxicities (DLTs), serious adverse events (SAEs), and adverse events leading to treatment discontinuation or dose reduction, will be reviewed when at least 3 DLT-evaluable subjects complete the DLT window. Subjects receiving three individual increasing doses of PSMA-targeting BiTE with etanercept prophylaxis experienced 1 DLT/SAE (grade 3 (G3) thrombocytopenia), 1 SAE (Grade 3 (G3) Afib), 0 dose reductions, 1 discontinuation (tolerability), CRS events in cycle 1: 4 grade 2 (G2), no grade 3/4 (G3/4). […] In the latter group 1 DLT/SAE (G3 Hypoacusis), 2 SAE (grade 3 (G3) Pruritus, grade 2/3 (G2/G3) CRS), 2 dose reductions, 2 discontinuations (disease progression), and CRS events in cycle 1: 4 grade 1 (G1), 7 grade 2 (G2), 4 grade 3 (G3) were observed. In the etanercept prophylaxis group the PSMA-targeting BiTE was administered at the same dosages and frequency as in the group without etanercept prophylaxis.

[1] = system: VCAM-1 expression on CD31+HUVEC; experiment: Blinatumumab VCAM assay: VCAM-1 on CD31+ HUVEC in co-cultures with T cells and NALM-6; assay type: cell-based, human; settings: isolated T cells and NALM-6
Procedure: FIG. 7. VCAM-1 Expression on HUVEC in AMG 103 Co-culture Assays: VCAM-1 expression by flow cytometry. […] expression levels are expressed as Median Fluorescence Intensity (MFI). VCAM-1 expressing HUVEC are expressed as percentage of CD31+HUVEC. Error bars indicate the standard error of the mean of duplicate measurements. Two PBMC donors were used in this experiment.
The effect of blinatumomab (AMG 103) on T cell activation and the induction of VCAM-1 on endothelial cells was analyzed in co-cultures of HUVEC, isolated T cells and CD19-expressing NALM-6 target cells. VCAM-1 expression on CD31+HUVEC was analyzed by flow cytometry.

[2] = cited from earlier work
[3] = system: MCP-1 release in HUVEC co-cultured with CD19-expressing NALM-6 cells and human PBMC; experiment: BiTE-induced MCP-1 release in co-culture of HUVEC, NALM-6 cells and human PBMC, with or without etanercept; assay type: cell-based; settings: HUVEC + NALM-6 + human PBMC; after 2 and 5 hours
From the text: FIG. 6. AMG 103-mediated MCP-1 Secretion: MCP-1 concentrations in cell culture supernatants were quantified by the BD Cytometric CBA human MCP-1 Flex Set. Error bars in both graphs indicate the standard error of the mean of duplicate measurements.
Human umbilical vein endothelial cells (HUVEC) were co-cultured with CD19-expressing NALM-6 cells and human PBMC and increasing concentrations of BiTE® antibody construct blinatumomab (AMG 103) against CD19 in the absence or presence of etanercept. MCP-1 concentrations were determined with the BD Cytometric CBA human MCP-1 Flex set system (BD, Germany after 2 and 5 hours, respectively according to the manufacturer's instructions and are shown in FIG. 6.

[4] = subjects on PSMA-targeting BiTE with prophylaxis

T1 sequence (P01375 77-233 limits assumed): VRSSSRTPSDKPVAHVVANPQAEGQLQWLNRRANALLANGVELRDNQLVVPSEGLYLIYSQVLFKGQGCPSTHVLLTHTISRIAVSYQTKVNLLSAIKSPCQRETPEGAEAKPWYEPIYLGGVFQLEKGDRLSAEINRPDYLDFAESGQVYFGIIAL

## tocilizumab: monoclonal antibody that competes with the binding of IL-6 to its receptor, IL-6R
TNF-α; in vivo
  CRS events in cycle 1, grade 1 (G1): 4
  CRS events in cycle 1, grade 2 (G2): 7
  CRS events in cycle 1, grade 3 (G3): 4
  SAE: 2
  discontinuations: 2
  dose reductions: 2

## AMG 103: BiTE® antibody construct against CD19
[1]; co-cultures of HUVEC, flow cytometry
  VCAM-1 expression on CD31+HUVEC: up-regulated

## etanercept
[1]
  sensitivity of AMG 103-induced VCAM-1 up-regulation to TNF blockade: sensitive
[2]; mean±SD
  half-life: 102 ± 30 h
[2]; subcutaneous, slow absorption
  time of maximum concentration [tmax], mean±SD: 69 ± 34 h
[3]
  effect on BiTE molecule (AMG 103) induced MCP-1 release: Blocked
TNF-α; PSMA-targeting BiTE at same dosages and frequency
  CRS safety profile compared with no premedication or premedication with tocilizumab: improves CRS safety profile
TNF-α; [4]
  CRS events in cycle 1, grade 2 (G2): 4
  CRS events in cycle 1, grade 3/4 (G3/4): no grade 3/4
  SAE: 1
  discontinuations: 1
  dose reductions: 0
TNF-α; subjects on PSMA-targeting BiTE with prophylaxis (etanercept 50 mg SC two days prior; tocilizumab 8 mg/kg two hours before first dose)
  DLT/SAE: 1
